Experimental data from US20260209355A1 (BIOND BIOLOGICS, published 2026).

T1: L145K mutated biotinylated and Myc tagged human CD28 stalk region dimeric peptide (human, C-terminal biotin; Cysteine at position 141 (CD28 numbering) forms the disulfide linkage of the dimer)
T1 construct: also called L145K CD28 stalk region dimeric peptide; mutant peptide
T1 peptide: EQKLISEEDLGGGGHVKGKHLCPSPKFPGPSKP

T2: c-Myc conjugated and biotinylated human CD28 stalk region dimeric peptide (wild-type) (human, C-terminal biotin; Cysteine at position 141 (CD28 numbering) forms the disulfide linkage of the dimer)
T2 construct: the Methods describe only this biotinylated dimeric peptide design, so it is used here; also called Biotin conjugated CD28 stalk region dimeric peptide; WT peptide
T2 peptide: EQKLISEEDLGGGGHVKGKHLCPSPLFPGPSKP


Key:
[1] = target: T1, L145K mutated biotinylated and Myc …; experiment: direct ELISA, peptide on neutravidin plate, anti His tag-HRP
Procedure: (§1) Biotin conjugated wild-type or L145K CD28 stalk region dimeric peptides were immobilized on neutravidin coated ELISA maxi-sorb plates. A dilution series of VHH clones (0.2-5 μg/mL) and an irrelevant VHH clone (top left chart) was performed and detection of bound VHH was done with anti His tag-HRP conjugated antibody and development was done with TMB.

[2] = target: T2, c-Myc conjugated and biotinylated human …; experiment: direct ELISA, WT stalk dimeric peptide on neutravidin plate, VHH 0.2-5 µg/mL
Procedure: as §1

[3] = target: T2, c-Myc conjugated and biotinylated human …; experiment: phage library screen by ELISA and flow cytometry against recombinant CD28 extracellular domain and the dimeric stalk region peptide
membranal human CD28 = target: T3, membranal human CD28 (human, UniProt P10747 19-220); experiment: FACS, FITC conjugated VHH on HEK cells overexpressing CD28
T3 construct: also called mCD28; HEK cells overexpressing human CD28

| Binder | binding result [1] | binding result [2] | binding result [3] | binding result (membranal human CD28) |
| --- | --- | --- | --- | --- |
| VHH clone 4A4 (VHH, Produced recombinantly in CHO cells) VHH: EVQLVESGGGLVQAGGSLRLSCAASGSLFSINAMAWYRQAPGKQRELVAAITSSGSTNYANSVKGRFTVSRDNAKNTMYLQMNSLKPEDTAVYYCVVDEYGSDYWIWGQGTQVTVSS | no binding (tested: 0.2-5 µg/mL) | binds | – | – |
| VHH clone 4A1 (VHH, Produced recombinantly in CHO cells) VHH: QVQLVESGGGLVQAGGSLRLSCAASGSIFSINAMGWYRQAPGKQRERVAAITSGGSTNYADSVKGRFTISRDNAKNTVYLQMNNLEPRDAGVYYCVVDLYGEDYWIWGQGTQVTVSS | no binding (tested: 0.2-5 µg/mL) | binds | – | – |
| VHH clone 2A1 (VHH, FITC conjugated in the FACS assay of FIG. 6, Produced recombinantly in CHO cells; from a naive llama VHH phage library; The printed text reads 'EVOLVESGGG' (probably Q); also called VHH #2A1) VHH: EVQLVESGGGLVQAGESLRLSCAASGSIASINAMGWYRQAPGSQRELVAAISGGGDTYYADSVKGRFTISRDNAKTTVYLQMNSLRPEDTAVYYCVVDLYGSDYWDWGQGTQVTVSS | no binding (tested: 0.2-5 µg/mL) | – | binds | binds |
